Experimental data from the supplement of paper PMC10567573.

B1: KIAA0774 (parent)
chain: FEDEVKRLGWQQQAELQELEERLQ

Variants of: B1
Test: protein stability index of a GFP-peptide fusion (GPS, HEK-293T) (PSI 1-6); higher = more stable
Conditions: c terminus: a fixed tail appended
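Further: lentivirally expressed fusions sorted by FACS into six bins by GFP to DsRed ratio, PSI derived from sequencing read proportions per bin multiplied by bin number.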

Compared with FEDEVKRLGRQQQAELQELEERLQ [W10R], FEDEVKRLGFQQQAELQELEERLQ [W10F] is lower in protein stability index: 5.5 for the first, 4.41 for the second.

Compared with FEDEVKRLGLQQQAELQELEERLQ [W10L], FEDEVKRLGGQQQAELQELEERLQ [W10G] is lower in protein stability index: 5.35 for the first, 5.07 for the second.

Going from FEDEVKRLGEQQQAELQELEERLQ [W10E] to FEDEVKRLGDQQQAELQELEERLQ [W10D], the protein stability index rises from 5.57 to 5.8.

Going from FEDEVKRLGAQQQAELQELEERLQ [W10A] to FEDEVKRLGMQQQAELQELEERLQ [W10M], the protein stability index rises from 5.49 to 5.65.

Going from FEDEVKRLGKQQQAELQELEERLQ [W10K] to FEDEVKRLGVQQQAELQELEERLQ [W10V], the protein stability index falls from 5.13 to 4.69.

Compared with FEDEVKRLGSQQQAELQELEERLQ [W10S], FEDEVKRLGCQQQAELQELEERLQ [W10C] is higher in protein stability index: 4.84 for the first, 4.97 for the second.

Compared with FEDEVKRLGYQQQAELQELEERLQ [W10Y], FEDEVKRLGHQQQAELQELEERLQ [W10H] is higher in protein stability index: 4.86 for the first, 5.09 for the second.

Going from FEDEVKRLGTQQQAELQELEERLQ [W10T] to FEDEVKRLGQQQQAELQELEERLQ [W10Q], the protein stability index rises from 5.13 to 5.71.

Going from FEDEVKRLGIQQQAELQELEERLQ [W10I] to FEDEVKRLGNQQQAELQELEERLQ [W10N], the protein stability index rises from 4.66 to 5.54.

Going from FEDEVKRLGPQQQAELQELEERLQ [W10P] to FEDKVKRLGWQQQAELQELEERLQ [E4K], the protein stability index falls from 5.11 to 2.97.

Compared with FEDHVKRLGWQQQAELQELEERLQ [E4H], FEDRVKRLGWQQQAELQELEERLQ [E4R] is lower in protein stability index: 3.59 for the first, 3.32 for the second.

Compared with FEDTVKRLGWQQQAELQELEERLQ [E4T], FEDAVKRLGWQQQAELQELEERLQ [E4A] is lower in protein stability index: 3.2 for the first, 2.75 for the second.

First: FEDLVKRLGWQQQAELQELEERLQ [E4L]
Second: FEDDVKRLGWQQQAELQELEERLQ [E4D]
The protein stability index of the first is lower: 2.47 for the first, 4.14 for the second.

First: FEDFVKRLGWQQQAELQELEERLQ [E4F]
Second: FEDCVKRLGWQQQAELQELEERLQ [E4C]
The protein stability index of the first is higher: 3.38 for the first, 2.93 for the second.

Going from FEDMVKRLGWQQQAELQELEERLQ [E4M] to FEDYVKRLGWQQQAELQELEERLQ [E4Y], the protein stability index rises from 3.12 to 3.64.

First: FEDWVKRLGWQQQAELQELEERLQ [E4W]
Second: FEDPVKRLGWQQQAELQELEERLQ [E4P]
The protein stability index of the first is lower: 2.81 for the first, 3.56 for the second.

Compared with FEDIVKRLGWQQQAELQELEERLQ [E4I], FEDQVKRLGWQQQAELQELEERLQ [E4Q] is higher in protein stability index: 3.19 for the first, 3.26 for the second.

Going from FEDGVKRLGWQQQAELQELEERLQ [E4G] to FEDVVKRLGWQQQAELQELEERLQ [E4V], the protein stability index rises from 3.21 to 3.33.

First: FEDNVKRLGWQQQAELQELEERLQ [E4N]
Second: FEDSVKRLGWQQQAELQELEERLQ [E4S]
The protein stability index of the first is higher: 3.49 for the first, 2.83 for the second.

Going from FEDEVPRLGWQQQAELQELEERLQ [K6P] to FEDEVCRLGWQQQAELQELEERLQ [K6C], the protein stability index falls from 4.48 to 3.87.

First: FEDEVRRLGWQQQAELQELEERLQ [K6R]
Second: FEDEVTRLGWQQQAELQELEERLQ [K6T]
The protein stability index of the first is lower: 4.03 for the first, 4.31 for the second.

Going from FEDEVLRLGWQQQAELQELEERLQ [K6L] to FEDEVERLGWQQQAELQELEERLQ [K6E], the protein stability index rises from 4.12 to 4.67.

First: FEDEVIRLGWQQQAELQELEERLQ [K6I]
Second: FEDEVSRLGWQQQAELQELEERLQ [K6S]
The protein stability index of the first is lower: 3.39 for the first, 4.47 for the second.

Compared with FEDEVYRLGWQQQAELQELEERLQ [K6Y], FEDEVDRLGWQQQAELQELEERLQ [K6D] is lower in protein stability index: 4.4 for the first, 3.75 for the second.

First: FEDEVQRLGWQQQAELQELEERLQ [K6Q]
Second: FEDEVMRLGWQQQAELQELEERLQ [K6M]
The protein stability index of the first is lower: 4.07 for the first, 4.17 for the second.

Compared with FEDEVHRLGWQQQAELQELEERLQ [K6H], FEDEVWRLGWQQQAELQELEERLQ [K6W] is lower in protein stability index: 4.14 for the first, 3.89 for the second.

First: FEDEVFRLGWQQQAELQELEERLQ [K6F]
Second: FEDEVGRLGWQQQAELQELEERLQ [K6G]
The protein stability index of the first is lower: 4.38 for the first, 4.5 for the second.

First: FEDEVVRLGWQQQAELQELEERLQ [K6V]
Second: FEDEVARLGWQQQAELQELEERLQ [K6A]
The protein stability index of the first is lower: 4.52 for the first, 4.54 for the second.

Compared with FEDEVNRLGWQQQAELQELEERLQ [K6N], FEDEVKTLGWQQQAELQELEERLQ [R7T] is higher in protein stability index: 4.16 for the first, 4.45 for the second.

First: FEDEVKPLGWQQQAELQELEERLQ [R7P]
Second: FEDEVKFLGWQQQAELQELEERLQ [R7F]
The protein stability index of the first is lower: 4.19 for the first, 4.32 for the second.

Going from FEDEVKYLGWQQQAELQELEERLQ [R7Y] to FEDEVKQLGWQQQAELQELEERLQ [R7Q], the protein stability index rises from 4.21 to 4.79.

Compared with FEDEVKKLGWQQQAELQELEERLQ [R7K], FEDEVKMLGWQQQAELQELEERLQ [R7M] is higher in protein stability index: 3.32 for the first, 4.41 for the second.

First: FEDEVKGLGWQQQAELQELEERLQ [R7G]
Second: FEDEVKHLGWQQQAELQELEERLQ [R7H]
The protein stability index of the first is higher: 4.9 for the first, 4.04 for the second.

Compared with FEDEVKDLGWQQQAELQELEERLQ [R7D], FEDEVKVLGWQQQAELQELEERLQ [R7V] is lower in protein stability index: 4.89 for the first, 3.9 for the second.

First: FEDEVKLLGWQQQAELQELEERLQ [R7L]
Second: FEDEVKALGWQQQAELQELEERLQ [R7A]
The protein stability index of the first is lower: 3.68 for the first, 4.65 for the second.

Compared with FEDEVKNLGWQQQAELQELEERLQ [R7N], FEDEVKELGWQQQAELQELEERLQ [R7E] is higher in protein stability index: 4.12 for the first, 4.53 for the second.

Going from FEDEVKSLGWQQQAELQELEERLQ [R7S] to FEDEVKCLGWQQQAELQELEERLQ [R7C], the protein stability index falls from 4.65 to 4.61.

Going from FEDEVKILGWQQQAELQELEERLQ [R7I] to FEDEVKWLGWQQQAELQELEERLQ [R7W], the protein stability index rises from 3.67 to 4.03.

Compared with FGDEVKRLGWQQQAELQELEERLQ [E2G], FADEVKRLGWQQQAELQELEERLQ [E2A] is lower in protein stability index: 3.14 for the first, 2.71 for the second.

Going from FSDEVKRLGWQQQAELQELEERLQ [E2S] to FWDEVKRLGWQQQAELQELEERLQ [E2W], the protein stability index rises from 2.32 to 3.33.

Going from FHDEVKRLGWQQQAELQELEERLQ [E2H] to FIDEVKRLGWQQQAELQELEERLQ [E2I], the protein stability index rises from 2.16 to 3.12.

Compared with FRDEVKRLGWQQQAELQELEERLQ [E2R], FQDEVKRLGWQQQAELQELEERLQ [E2Q] is lower in protein stability index: 4.41 for the first, 2.93 for the second.

First: FPDEVKRLGWQQQAELQELEERLQ [E2P]
Second: FKDEVKRLGWQQQAELQELEERLQ [E2K]
The protein stability index of the first is higher: 3.16 for the first, 2.27 for the second.

First: FLDEVKRLGWQQQAELQELEERLQ [E2L]
Second: FNDEVKRLGWQQQAELQELEERLQ [E2N]
The protein stability index of the first is higher: 3.05 for the first, 2.5 for the second.

Compared with FVDEVKRLGWQQQAELQELEERLQ [E2V], FYDEVKRLGWQQQAELQELEERLQ [E2Y] is higher in protein stability index: 2.21 for the first, 3.56 for the second.

Going from FMDEVKRLGWQQQAELQELEERLQ [E2M] to FFDEVKRLGWQQQAELQELEERLQ [E2F], the protein stability index rises from 2.77 to 3.25.

Going from FTDEVKRLGWQQQAELQELEERLQ [E2T] to FDDEVKRLGWQQQAELQELEERLQ [E2D], the protein stability index rises from 2.77 to 3.79.
